Columns and labels:
elastase = biological target: T1, elastase (Homo sapiens, UniProt P08246); settings: pathologic conditions associated with neutrophil dysfunction; ref [22]; cited from earlier work
T1 construct: purchased Elastin Products Company, Inc. (Owensville, MO, USA)
T1 sequence (P08246 30-267): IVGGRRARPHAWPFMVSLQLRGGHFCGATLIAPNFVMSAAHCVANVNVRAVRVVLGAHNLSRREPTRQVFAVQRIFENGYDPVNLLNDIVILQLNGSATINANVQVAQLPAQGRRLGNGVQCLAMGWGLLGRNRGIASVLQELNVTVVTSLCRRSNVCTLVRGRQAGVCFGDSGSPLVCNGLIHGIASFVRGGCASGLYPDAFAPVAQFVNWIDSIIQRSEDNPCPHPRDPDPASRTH
Text: Neutrophils also release granule contents containing enzymes such as elastase, proteinase-3, and cathepsin G. Elastase, a particularly inflammatory enzyme, interferes with thrombomodulin function, and cleaves TF pathway inhibitor (TFPI), the physiological inhibitor of the extrinsic pathway. […] Elastase also induces proteinase-activated receptor activation, contributes to cytokine production and processing, inactivates metalloprotease inhibitors, deg ...

neutrophil = settings: migration induced by PAF, fMLP or IL-8; ref [49]–[51]; cited from earlier work
Text: Once released, serine protease may bind to the cell surface and remains relatively inaccessible to inhibitors, in contrast to soluble enzymes, [48]. Elastase and other serine proteases reportedly modulate several functions of neutrophils, including chemokine activation and degradation, cell recruitment, receptor activation, activation of lymphocytes, NET formation, and cleavage of adhesion molecules, apoptotic proteins, and anticoagulants. Assay ...

inflamed microvessels = test system: inflamed microvessels; parameters: method as in PMID 8400269; settings: intravital microscopy of inflamed microvessels; ref [50]; cited from earlier work
neutrophils [1] = assay: Neutrophil-induced coagulation; assay type: cell-based, human; settings: neutrophils with PMA 50 nM, 3 h; 370 sec without PMA
Procedure: (§1) A) Platelet aggregation. Washed human platelets were stimulated with elastase only (500 nM, left panel), or cathepsin G only (110 nM, middle tracing), or elastase followed by cathepsin G (right tracing). […] Aggregation response was monitored by turbidimetry using a Lumi-Aggregometer. D) TFPI cleavage. […] After 2 h, reactions were stopped by addition of LDS loading buffer (under reducing conditions, 10 mM DTT), boiled for 5 min, and loaded in 4–12% Nu-PAGE gel. Gels were Coomassie Blue-stained. E) Neutrophil-induced coagulation. […] Fifty µl of this suspension was added to 50 µl of plasma, and reactions were started by addition of CaCl2 (12.5 mM, final concentration)(*, p<0.05).
(§2) Whole blood (5 mL collected in 0.5 mL of 3.2% sodium citrate) from healthy donors was diluted in an equal volume of PBS, layered over 5 mL of HISTOPAQUE solution (10771, Sigma Aldrich), and centrifuged for 40 min, at 400×g, at room temperature. The lower interphase having granulocytes was collected and transferred to a 15-ml Falcon tube and resuspended in 10 ml ammonium chloride lysis buffer (1.7 M NH4Cl, […], 1 mM EDTA) to lyse red blood cells. Lysis was carried out twice followed by centrifugation for 10 min at 400×g. Neutrophils were washed with PBS and resuspended at 1×10^6 cells/mL in high glucose DMEM (GIBCO). Neutrophils were kept on ice. […]

neutrophils [2] = assay: NETs formation; assay type: cell-based, human; settings: PMA 5 nM, 3 h, no inhibitor
Procedure: Left panel, non-activated neutrophil (no PMA). Formation of NETs was visualized under confocal microscopy, using antibody against citrullinated histone. Representative experiment is shown (4 different donors). B) Quantification. Performed as described in Methods.
as §2, with “400×g.” for “400×g. Neutrophils were washed with PBS and resuspended at 1×10^6 cells/mL in high glucose DMEM (GIBCO). Neutrophils were kept on ice.”
Cells were fixed with 500 µl of 4% paraformaldehyde (final concentrations) for 10 min, washed 3 times with PBS and incubated for 10 min with blocking solution (PBS, 10%FBS, 5 mg/ml BSA). […] NETs were quantified according to Farley et al. Briefly, NETs were identified on digitalized images as Hoechst-positive fibrils emanating from cells with an overall length at least twice as long as the cell diameter and were counted for at least two fields of view per variable. Results were expressed as the percentage of NETs/total number of granulocytes.

bacterial strains = assay: Minimum inhibitory concentration (MIC), control over all strains; assay type: cell-based; settings: ciprofloxacin quality control, 1024-0 ng/ml, each strain; not shown
normal human plasma [3] = assay: aPTT; assay type: biochemical; settings: heparin control 10 µg/ml; not shown
Procedure: (§3) aPTT and PT were evaluated on a STart 4 stago coagulometer (Diagnostica Stago, Parsippany, NJ, USA). Freeze-dried, citrated, normal human plasma was resuspended in ultra-pure water. […] Then, 50 µl of pre-warmed aPTT reagent (STA PTT; Diagnostica Stago, Asnières sur Seine, France) was added and incubated for an additional 2 min. CaCl2 (50 µl at 25 mM) was added to start reactions. […] Then, 100 µl of the PT reagent (NEOplastine CI plus; Diagnostica Stago) was added. Time for clot formation was recorded in duplicate.

normal human plasma [4] = assay: PT; assay type: biochemical; settings: heparin control 100 µg/ml; not shown
Procedure: as §3

monocyte-like cells = test system: monocyte-like cells; parameters: method as in PMID 16352738; settings: internalized by monocyte-like cells, ref [57], cited from earlier work
[5] = test system: human neutrophil elastase; assay: TFPI cleavage by elastase (SDS/PAGE); assay type: biochemical; settings: elastase 0.8 µg/ml, TFPI 1 µg, 2 h at RT, no inhibitor
Procedure: as §1
After 2 h at RT, reactions were stopped by addition of Laemmli buffer (supplemented with dithiothreitol) and boiled for 5 min. Proteins were separated by 4% to 12% NuPAGE (MES buffer); gels were stained with Coomassie Blue R-250 and destained with 40% methanol. See Blue molecular weight (mol. wt.) markers were used (Invitrogen).

washed human platelets [6] = assay: Platelet aggregation, elastase followed by cathepsin G; assay type: cell-based; settings: elastase 500 nM, no inhibitor
Procedure: as §1
(§4) Platelet-rich plasma was obtained by plateletpheresis from medication-free platelet donors at the Department of Transfusion Medicine (NIH blood bank). Washing of platelets and platelet aggregation were performed in a Lumi-aggregometer (Chronol-Log, Haverstown, MD, USA) as described, [87].

neutrophil elastase [7] = biological target: T2, neutrophil elastase (Homo sapiens, UniProt P08246); assay: SPR
T2 chain: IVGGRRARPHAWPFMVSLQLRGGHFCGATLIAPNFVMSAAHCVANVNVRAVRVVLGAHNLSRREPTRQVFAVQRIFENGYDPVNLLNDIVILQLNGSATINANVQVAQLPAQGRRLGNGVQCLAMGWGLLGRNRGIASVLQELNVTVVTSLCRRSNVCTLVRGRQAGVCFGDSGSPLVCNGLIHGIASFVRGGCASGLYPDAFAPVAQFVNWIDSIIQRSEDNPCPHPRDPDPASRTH

neutrophil elastase [8] = biological target: T2, neutrophil elastase; assay: enzyme inhibition assay (chromogenic substrate, Cheng-Prusoff)
washed human platelets [9] = assay: Platelet aggregation, cathepsin G-induced; assay type: cell-based; settings: low dose cathepsin G 110 nM, no inhibitor
Procedure: as §1, §4

NETs formation = test system: NETs formation; parameters: method as in 2 sources, one per row (each row's own in cited_ref): ref [38], [55] = [38]; PMID 20974816; doi:10.1083/jcb.201006052; 38 Papayannopoulos V , Metzler KD , Hakkim A , Zychlinsky A ( 2010 ) Neutrophil elastase and myeloperoxidase regulate the formation of neutrophil extracellular traps . J Cell Biol 191 : 677 – 691 . 20 || [55]; PMID 23635526; doi:10.1159/000348676; 55 Braian C , Hogea V , Stendahl O ( 2013 ) Mycobacterium tuberculosis- induced neutrophil extracellular traps activate human macrophages . J Innate Immun 5 : 591 – 602 . 23635526 10.1159/000348676 PM ||| ref [56] = [56]; PMID 23002442; doi:10.4049/jimmunol.1201167; 56 Farley K , Stolley JM , Zhao P , Cooley J , Remold-O'Donnell E ( 2012 ) A serpinB1 regulatory mechanism is essential for restricting neutrophil extracellular trap generation . J Immunol 189 : 4574; settings: exogenously added, internalized, translocates into nucleus; ref [56]; cited from earlier work

Cc1c(-c2ccnn2C)cc(C(=O)NCc2ccc(S(C)(=O)=O)cn2)c(=O)n1-c1cccc(C(F)(F)F)c1 [AZD9668]
clinical trial results (elastase): mixed results

CO[C@H]1C(=O)N2C(C(=O)N3CCC[C@H]3C(=O)O)=C(COC(C)=O)CS(=O)(=O)[C@H]12 [L658758, reference compound]
chemotactic neutrophil functions (neutrophil): blocks chemotactic neutrophil functions | neutrophil transmigration (inflamed microvessels): inhibition of neutrophil transmigration

CCCCCCCCCCCCCC(=O)O[C@@H]1[C@@H](C)[C@@]2(O)[C@@H](C=C(CO)C[C@]3(O)C(=O)C(C)=C[C@@H]23)[C@@H]2C(C)(C)[C@]12OC(C)=O [PMA, Phorbol 12-myristate 13-acetate, reference compound]
clotting time (neutrophils [1]): 250 s | induction of NETs (neutrophils [2]): induces a strong response

O=C(O)c1cn(C2CC2)c2cc(N3CCNCC3)c(F)cc2c1=O [ciprofloxacin]
MIC (bacterial strains): < 1 µg/mL

CC(C)(C)C(=O)Oc1ccc(S(=O)(=O)Nc2ccccc2C(=O)NCC(=O)O)cc1 [sivelestat]
clinical trial results (elastase): mixed results

heparin
aPTT (normal human plasma [3]): prolonged | PT (normal human plasma [4]): prolonged

B1: secretory leukocyte proteinase inhibitor (protein, UniProt P03973 26-132, looked up)
Antileukoproteinase: SGKSFKAGVCPPKKSAQCLRYKKPECQSDWQCPGKKRCCPDTCGIKCLDPVDTPNPTRRKPGKCPVTYGQCLMLNPPNFCEMDGQCKRDLKCCMGMCGKSCVSPVKA
p65 binding (monocyte-like cells; binds NF-κB binding sites): inhibit p65 binding | TNF-α and IL-8 generation (monocyte-like cells): promote inhibition of TNF-α and IL-8 generation | chemotactic neutrophil functions (neutrophil): blocks chemotactic neutrophil functions

B2: Eglin C: pharmacologic inhibitor of elastase (protein, UniProt P01051 1-70, looked up)
Eglin C: TEFGSELKSFPEVVGKTVDQAREYFTLHYPQYDVYFLPEGSPVTLDLRYNRVRVFYNPGTNVVNHVPHVG
chemotactic neutrophil functions (neutrophil): blocks chemotactic neutrophil functions | neutrophil transmigration (inflamed microvessels): inhibition of neutrophil transmigration

B3: elastase: neutrophil elastase, enzyme used as stimulus (protein, UniProt P08246 30-267, looked up)
Neutrophil elastase: IVGGRRARPHAWPFMVSLQLRGGHFCGATLIAPNFVMSAAHCVANVNVRAVRVVLGAHNLSRREPTRQVFAVQRIFENGYDPVNLLNDIVILQLNGSATINANVQVAQLPAQGRRLGNGVQCLAMGWGLLGRNRGIASVLQELNVTVVTSLCRRSNVCTLVRGRQAGVCFGDSGSPLVCNGLIHGIASFVRGGCASGLYPDAFAPVAQFVNWIDSIIQRSEDNPCPHPRDPDPASRTH
TFPI cleavage by elastase [5]: cleaves TFPI | shape change or aggregation by elastase only (washed human platelets [6]): does not promote shape change or aggregation

B4: Agaphelin 1-58 (protein)
chain: DINSEMATCACQLIYRPVCASNNESYSNECVLKCASETPTGRSIGLHKVKDGNCNGEF
Kd (neutrophil elastase [7]): 17.4 nM | Ki (neutrophil elastase [8]): 9.22 nM

B5: cathepsin G: neutrophil protease used as platelet agonist (protein, UniProt P08311 21-244, looked up)
Cathepsin G: IIGGRESRPHSRPYMAYLQIQSPAGQSRCGGFLVREDFVLTAAHCWGSNINVTLGAHNIQRRENTQQHITARRAIRHPQYNQRTIQNDIMLLQLSRRVRRNRNVNPVALPRAQEGLRPGTLCTVAGWGRVSMRRGTDTLREVQLRVQRDRQCLRIFGSYDPRRQICVGDRRERKAAFKGDSGGPLLCNNVAHGIVSYGKSSGVPPEVFTRVSSFLPWIRTTMRS
platelet activation by cathepsin G only (washed human platelets [9]): activate platelets

B6: serpin B1: exogenously added elastase inhibitor (protein, UniProt P30740 1-379, looked up)
Leukocyte elastase inhibitor: MEQLSSANTRFALDLFLALSENNPAGNIFISPFSISSAMAMVFLGTRGNTAAQLSKTFHFNTVEEVHSRFQSLNADINKRGASYILKLANRLYGEKTYNFLPEFLVSTQKTYGADLASVDFQHASEDARKTINQWVKGQTEGKIPELLASGMVDNMTKLVLVNAIYFKGNWKDKFMKEATTNAPFRLNKKDRKTVKMMYQKKKFAYGYIEDLKCRVLELPYQGEELSMVILLPDDIEDESTGLKKIEEQLTLEKLHEWTKPENLDFIEVNVSLPRFKLEESYTLNSDLARLGVQDLFNSSKADLSGMSGARDIFISKIVHKSFVEVNEEGTEAAAATAGIATFCMLMPEENFTADHPFLFFIRHNSSGSILFLGRFSSP
NETs formation (NETs formation): inhibits NETs formation
